{
  "source": "paper doi:10.1101/2021.12.06.470909",
  "about": "“Ubiquitination regulates cytoophidium assembly in Schizosaccharomyces pombe” (bioRxiv, 2021)",
  "biological_target": "T1, ubiquitin (S. pombe (endogenous in S. pombe), UniProt P0CG72 1-76)",
  "T1 construct": "ubiquitin of S. pombe, the cut product of the ubiquitin precursors; precipitated with an anti-ubiquitin polyclonal antibody; The ubiquitin may be free, in chains or covalently conjugated; source: endogenous, S. pombe lysate",
  "T1 sequence (P0CG72 1-76)": "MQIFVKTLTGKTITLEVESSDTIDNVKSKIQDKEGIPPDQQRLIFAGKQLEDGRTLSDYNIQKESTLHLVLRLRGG",
  "assay": "co-IP; S. pombe extract (Buffer A: 50mM Hepes-KOH pH 7.5, 5mM MgAc, 100mM KAc, 0.1% NP40, 1mM DTT, 0.5mg/ml BSA) precipitated with anti-ubiquitin rabbit polyclonal antibody overnight at 4°C, then A/G magnetic beads; blot with anti-HA (Cts1-flag-3HA, with MG132) or anti-GFP (Cts1-YFP strains; also in mug30Δ and ubr11Δ backgrounds); IP signal normalised over input",
  "conditions": "partners not purified",
  "data": [
    {"binder": "Cts1-YFP K430R (enzyme, S. pombe, UniProt O42644 1-600, looked up, CTP synthase (Cts1) of Schizosaccharomyces pombe with the point mutation K430R, fused to YFP; source: S. pombe K430R strain in a Cts1-YFP background, in cell lysate) MKYVLVSGGVISGIGKGVIASSTGLLLKTLGLKVTSIKIDPYMNIDAGTMSPLEHGEVFVLNDGGEVDLDLGNYERYLNVTLTHDNNITTGKVYSNVIQKERRGDYLGKTVQIVPHVTNEIQDWVERVARIPVDQSGEEPDVCIVELGGTVGDIESAAFVEAMRQFQFRVGHENFVSIHVSLVPVINGEQKTKPTQQAIRDLRSLGITPDLIACRCKQPLEKSVIDKISLFCHVGPEQVLAVHDVSSTYHVPQLLEDKLLEYLKIRFALDKISVSRELALAGENMWSSWKHLTQGYDHLFKKVTIVLVGKYTHLQDSYISVIKALEHSAMRCGRKLDLQWVEASHLEASTNTSDPLSYHKAWHLVCSANGILVPGGFGSRGVEGMIAAAKWARENNTPYLGICLGMQVAVIEFARSVCGIEGAFSEEFDRECENNVVVYMPEIDKDKLGGTMRLGLRPTFFQPNSEWSKLRKLHKMVDEVLERHRHRYEINPAFVSRLEQGGISFIGKDERGERMEIIEKRDHPYFVGVQYHPEYLSKPLKPSPPIFGLVAASAGLLDEFIQSGEEVEWSNFSHFNAESALADMNDSVEVTEEATVVTIS", "values": [
      {"measurement": "fold reduction of the co-IP signal against Cts1-YFP", "result": 6.2, "unit": "fold"}
    ]}
  ]
}
